{"source": "patent US20250197448A1", "about": "(published 2025)", "key": {"[1]": {"molecular_target": "T1, PD-L1 (Programmed Death-Ligand 1), recombinant, His-tagged (human, UniProt Q9NZQ7 18-134)", "T1 chain": "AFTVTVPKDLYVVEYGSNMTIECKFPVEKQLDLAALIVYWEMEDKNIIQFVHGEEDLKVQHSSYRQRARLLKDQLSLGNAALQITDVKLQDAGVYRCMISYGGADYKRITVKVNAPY", "experiment": "in vitro PD-L1 binding assay; FIG. 15A"}, "[2]": {"molecular_target": "T1, PD-L1 (Programmed Death-Ligand 1), …", "experiment": "in vitro PD-L1 binding assay"}, "[3]": {"molecular_target": "Indian Hedgehog (Ihh) (human, UniProt Q14623 28-202)", "sequence (Q14623 28-202)": "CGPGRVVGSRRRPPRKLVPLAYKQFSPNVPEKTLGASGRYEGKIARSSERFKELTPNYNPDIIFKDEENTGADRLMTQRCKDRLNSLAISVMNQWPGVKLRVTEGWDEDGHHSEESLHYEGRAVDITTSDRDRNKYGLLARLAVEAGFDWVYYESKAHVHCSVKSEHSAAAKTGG", "experiment": "immobilized Ihh binding assay; FIG. 13C"}, "[4]": {"molecular_target": "Sonic Hedgehog (Shh) (human, UniProt Q15465 24-197)", "experiment": "immobilized Shh binding assay; FIG. 13C"}, "[5]": {"molecular_target": "Desert Hedgehog (Dhh) (human, UniProt O43323 23-198)", "experiment": "immobilized Dhh binding assay; FIG. 13C"}, "[6]": {"molecular_target": "cCLP002(pCaaF)", "experiment": "in vitro PD-L1 binding assay"}, "[7]": {"molecular_target": "cCLP002(pCmF)", "experiment": "in vitro PD-L1 binding assay"}, "[8]": {"molecular_target": "cRK10(pCmF)", "experiment": "in vitro PD-L1 binding assay"}, "[9]": {"molecular_target": "T1, PD-L1 (Programmed Death-Ligand 1), …", "experiment": "in vitro PD-L1 binding assay"}}, "note": "Starred links: 1 amine or outer side, 2 acyl side, 3 side chain; linkers in the order of their positions; H or OH if unused. Positions of bridges follow the written chain, without caps; N, C: chain ends. Non-standard residues stand in square brackets, D forms with d. No end group written: not given here. O2beY = O-(2-bromoethyl)-tyrosine (p-2beF), reacts with Cys to form a thioether, O=C([C@H](Cc1ccc(OCCBr)cc1)N[*:1])[*:2]; pCaaF = p-(2-chloroacetamido)-phenylalanine, O=C(CCl)Nc1ccc(C[C@H](N[*:1])C(=O)[*:2])cc1"}
{"binder": "TYLCGAISLA[pCaaF]KAQIKESL (thioether 4-11)", "note": "[cyclic peptide cRK10 (pCaaF)]", "values": [{"measurement": "Kd", "setting": "[1]", "value": 12, "unit": "µM"}]}
{"binder": "DYKDDDDKGSGSTYLCGAISLA[pCaaF]KAQIKESLGSGSGS-{Fc-H6} (Fc fusion, thioether 16-23)", "note": "[FLAG-cRK10-(GS)3-Tras-Fc-His]", "values": [{"measurement": "Kd", "setting": "[2]", "value": 88, "unit": "nM"}]}
{"binder": "DYKDDDDKGSGSTLSW[O2beY]EAMDMCTSSQQQQQQ-{Fc-H6} (Fc fusion, thioether 17-23; also: dimeric through the Fc)", "note": "[L2-m5-Tras-Fc]", "values": [{"measurement": "Kd", "setting": "[3]", "value": 8, "unit": "nM"}, {"measurement": "Kd", "setting": "[4]", "value": 8, "unit": "nM"}, {"measurement": "Kd", "setting": "[5]", "value": 9, "unit": "nM"}]}
{"binder": "PD-L1 (ligand) AFTVTVPKDLYVVEYGSNMTIECKFPVEKQLDLAALIVYWEMEDKNIIQFVHGEEDLKVQHSSYRQRARLLKDQLSLGNAALQITDVKLQDAGVYRCMISYGGADYKRITVKVNAPY", "values": [{"measurement": "Kd", "setting": "[6]", "value": 87, "unit": "µM"}, {"measurement": "Kd", "setting": "[7]", "value": "> 15", "unit": "µM"}, {"measurement": "Kd", "setting": "[8]", "value": "> 100", "unit": "µM"}]}
{"binder": "DYKDDDDKGSGSTYLCGAISLA[pCaaF]KAQIKESLEAAAK-{Fc-H6} (Fc fusion, thioether 16-23)", "note": "[FLAG-cRK10-EAAAK-Tras-Fc-His]", "values": [{"measurement": "Kd", "setting": "[2]", "value": 88, "unit": "nM"}]}
{"binder": "DYKDDDDKGSGSWHFS[pCaaF]NWRWLPCQQQQQQ (Fc fusion, thioether 17-24 (inferred); not fully specified (C-terminus))", "note": "[cCLP003 (pCaaF)-Tras-Fc]", "values": [{"measurement": "Kd", "setting": "[9]", "value": 238, "unit": "nM"}]}
{"binder": "DYKDDDDKGSGSTYLCGAISLA[pCaaF]KAQIKESLPAPAP-{Fc-H6} (Fc fusion, thioether 16-23)", "note": "[FLAG-cRK10-PAPAP-Tras-Fc-His]", "values": [{"measurement": "Kd", "setting": "[2]", "value": 90, "unit": "nM"}]}
